Source: patent publication US20220305081A1

Target: human SIRPγ (signal regulatory protein gamma), expressed on cells (human) (UniProt Q9P1W8)
Assay: cell-based or functional assay

Chain of UniProt Q9P1W8 (Q9P1W8 29-387): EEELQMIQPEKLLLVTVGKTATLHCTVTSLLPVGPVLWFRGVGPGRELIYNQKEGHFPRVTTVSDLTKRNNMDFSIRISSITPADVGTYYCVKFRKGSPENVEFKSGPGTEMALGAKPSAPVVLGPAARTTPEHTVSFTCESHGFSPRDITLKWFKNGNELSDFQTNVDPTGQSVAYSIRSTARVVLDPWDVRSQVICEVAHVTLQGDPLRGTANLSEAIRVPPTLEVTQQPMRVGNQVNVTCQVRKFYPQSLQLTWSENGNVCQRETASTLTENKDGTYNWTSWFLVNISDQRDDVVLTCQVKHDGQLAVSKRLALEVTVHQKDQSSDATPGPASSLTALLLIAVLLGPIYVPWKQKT

Q: For “anti-SIRPγ monoclonal antibody clone OX117”, which level of IFNγ secreted by T cells, relative to OX119-treated cells is on record?
A: Its level of IFNγ secreted by T cells, relative to OX119-treated cells is greater than 6 fold.

Q: What about the level of IFNγ secreted by T cells, relative to cells treated with LSB2.20 of the same substance?
A: Its level of IFNγ secreted by T cells, relative to cells treated with LSB2.20 is 2 fold.
